In patent publication US20260242478A1 (published 2026):
Where no end group is shown, it is not given here.

Experiments:
[1] = molecular target: T1, PSMA Fab (006 PSMA Fab) (biotinylated (site not given)); assay: clonal phage ELISA; biotinylated PSMA Fab on neutravidin plate, blocking buffer alone; anti-M13 HRP detection;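 further: crude clonal phage supernatants added without washing to wells pretreated with blocking buffer with or without PSMA antigen, short incubation, then washed before detecting bound phage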
T1 construct: also called Anti-PSMA Fab; anti-PSMA Fab

[2] = molecular target: T2, PSMA Fab (biotinylated (site not stated)); assay: clonal phage ELISA; biotinylated PSMA Fab on neutravidin plate; bound phage detected with anti-M13-HRP
T2 construct: also called Anti-PSMA Fab; 006 PSMA Fab

[3] = molecular target: T2, PSMA Fab; assay: clonal phage ELISA; PSMA Fab wells pre-incubated with PSMA antigen as competitor; anti-M13-HRP detection
Description: (§1) Clonal phage were harvested as crude supernatants and screened via standard ELISAs. […] Prior to the addition of clonal phage. wells were incubated with blocking buffer and PSMA antigen or blocking buffer alone. Without washing or aspirating, clonal phage supernatants were then added to the wells and incubated for a short time. Wells were then washed followed by detection of bound phage using a horse radish conjugated anti-M13 antibody.

[4] = molecular target: T3, 006 PSMA Fab; assay: phage binding ELISA; biotinylated PSMA Fab on neutravidin plate pre-incubated with PSMA antigen as competitor, clonal phage supernatant, anti-M13 HRP detection
T3 construct: also called Anti-PSMA Fab
Description: as §1

[5] = molecular target: T3, 006 PSMA Fab; assay: phage binding ELISA; biotinylated PSMA Fab on neutravidin plate, clonal phage supernatant, anti-M13 HRP detection; blocking buffer alone;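 further: before phage were added, wells were preincubated with blocking buffer either containing PSMA antigen or without it, and phage were then added with no wash in between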
Description: as §1

[6] = molecular target: T4, PSMA Fab (biotinylated (site not stated)); assay: clonal phage ELISA on biotinylated PSMA Fab captured on neutravidin plates, anti-M13 HRP detection;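 further: crude clonal phage supernatants tested, before phage were added, wells were pretreated with PSMA antigen in blocking buffer or with blocking buffer only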
T4 construct: also called Anti-PSMA Fab; 006 PSMA Fab

[7] = molecular target: T4, PSMA Fab; assay: clonal phage ELISA on captured PSMA Fab, wells pre-incubated with PSMA antigen as competitor; column meaning inferred
Description: as §1

Row | Binder | Phage binding ELISA signal, Anti-PSMA Fab [1] | Phage binding ELISA signal, Anti-PSMA Fab [2] | Phage binding ELISA signal, Anti-PSMA Fab with PSMA antigen [3] | further results
1 | MEKWCIPQWMCEQF (cysteine pairing not given here; also: displayed on bacteriophage as fusion to pIII, fusion and linker not given here, Tested as clonal phage supernatant; also called Peptide-180 library clone) [Phage-2692] | 0.834 |  |  | 
2 | VEMLCKPAWMCANQ (cysteine pairing not given here; also: displayed on phage as pIII fusion) [Phage-2626] |  | 0.986 | 0.0829 | 
3 | SEAWCIPSWMCRGD (cysteine pairing not given here; also: fused to phage pIII (clonal phage display), Tested as clonal phage supernatant; also called Peptide-180 library clone) [Phage-2684] | 0.857 |  |  | 
4 | VHYWCIPAWMCNKS (cysteine pairing not given here; also: displayed on bacteriophage as fusion to pIII, fusion and linker not given here, Tested as clonal phage supernatant; also called Peptide-180 library clone) [Phage-2687] | 0.841 |  |  | 
5 | EYAWCIPEWMCGWI (cysteine pairing not given here; also: displayed on bacteriophage as fusion to pIII, fusion and linker not given here, Tested as clonal phage supernatant; also called Peptide-180 library clone) [Phage-2683] | 0.858 |  |  | 
6 | GEKWCTPPWMCMFQ (cysteine pairing not given here; also: displayed on bacteriophage as fusion to pIII, fusion and linker not given here, Tested as clonal phage supernatant; also called Peptide-180 library clone) [Phage-2681] | 0.861 |  |  | 
7 | FHMWCTPAWMCADQ (cysteine pairing not given here; also: displayed on phage as pIII fusion) [Phage-2622] |  | 0.996 | 0.126 | 
8 | HWRMCVPTWMCHLD (cysteine pairing not given here; also: displayed on bacteriophage as fusion to pIII) [Phage-2695] |  |  |  | Phage binding ELISA signal, Anti-PSMA Fab with PSMA antigen [4]: 0.15; Phage binding ELISA signal, Anti-PSMA Fab [5]: 0.83
9 | VTKLCIPEWMCASD (cysteine pairing not given here; also: displayed on phage as pIII fusion) [Phage-2630] |  | 0.975 | 0.0961 | 
10 | IKPLCSPPWMCSMY (cysteine pairing not given here; also: displayed on bacteriophage as fusion to pIII, fusion and linker not given here, Tested as clonal phage supernatant; also called Peptide-180 library clone) [Phage-2689] | 0.839 |  |  | 
11 | THHWCIPAWMCEQD [Phage-2633] |  | 0.967 | 0.0809 | 
12 | LNNWCTPLWMCQMF [Phage-2628] |  | 0.979 | 0.201 | 
13 | AEKWCIPEWMCEQL [Phage-2632] |  | 0.972 | 0.0717 | 
14 | IANWCTPQWMCDGF [Phage-2620] |  | 0.997 | 0.0631 | 
15 | MTQWCIPEWMCSEE [Phage-2624] |  | 0.99 | 0.0648 | 
16 | AFKWCIPNWMCASQ (cysteine pairing not given here; also: fused to phage pIII (clonal phage display), Clonal phage of the peptide-180 library; not shown: fused to pIII of the bacteriophage) [Phage-2618] |  |  |  | Phage binding ELISA signal, Anti-PSMA Fab [6]: 1.01; Phage binding ELISA signal, Anti-PSMA Fab in presence of PSMA antigen [7]: 0.0999
17 | EAHLCKPLWMCEFG (cysteine pairing not given here; also: displayed on bacteriophage as fusion to pIII, fusion and linker not given here, Tested as clonal phage supernatant; also called Peptide-180 library clone) [Phage-2688] | 0.84 |  |  | 

Row | Binder | Phage binding ELISA signal, Anti-PSMA Fab [1] | Phage binding ELISA signal, Anti-PSMA Fab [2] | Phage binding ELISA signal, Anti-PSMA Fab with PSMA antigen [3] | further results
18 | TPKWCTPPWMCQHG [Phage-2623] |  | 0.994 | 0.0728 | 
19 | IVKWCTPPWMCERP (cysteine pairing not given here; also: displayed on bacteriophage as fusion to pIII, fusion and linker not given here, Tested as clonal phage supernatant; also called Peptide-180 library clone) [Phage-2691] | 0.834 |  |  | 
20 | VMSWCVPAWMCETP [Phage-2631] |  | 0.973 | 0.0614 | 
21 | MGNWCTPSWMCEGL (cysteine pairing not given here; also: displayed on bacteriophage as fusion to pIII, fusion and linker not given here, Tested as clonal phage supernatant; also called Peptide-180 library clone) [Phage-2693] | 0.833 |  |  | 
22 | GEKWCTPLWMCEWY (cysteine pairing not given here; also: displayed on bacteriophage as fusion to pIII, fusion and linker not given here, Tested as clonal phage supernatant; also called Peptide-180 library clone) [Phage-2694] | 0.832 |  |  | 
23 | QNIRCVPPWMCENL (cysteine pairing not given here; also: displayed on bacteriophage as fusion to pIII, fusion and linker not given here, Tested as clonal phage supernatant; also called Peptide-180 library clone) [Phage-2686] | 0.844 |  |  | 
24 | PMKLCSPPWMCFYD (cysteine pairing not given here; also: displayed on bacteriophage as fusion to pIII, fusion and linker not given here, Tested as clonal phage supernatant; also called Peptide-180 library clone) [Phage-2685] | 0.85 |  |  | 
25 | PETRCIPSWMCSGM [Phage-2625] |  | 0.989 | 0.0912 | 
26 | LVKWCTPTWMCVGM (cysteine pairing not given here; also: displayed on bacteriophage as fusion to pIII, fusion and linker not given here, Tested as clonal phage supernatant; also called Peptide-180 library clone) [Phage-2690] | 0.837 |  |  | 
27 | MNKWCTPAWMCEVV (cysteine pairing not given here; also: displayed on phage as pIII fusion) [Phage-2619] |  | 0.998 | 0.095 | 
28 | WEKWCTPSGMCDAR [Phage-2627] |  | 0.982 | 0.106 | 
29 | YTPWCKPAWMCSVS (cysteine pairing not given here; also: displayed on phage pIII, linker not given here, Clonal phage of the peptide-180 library; not shown: fused to pIII of the bacteriophage) [Phage-2617] |  |  |  | Phage binding ELISA signal, Anti-PSMA Fab [6]: 1.01; Phage binding ELISA signal, Anti-PSMA Fab in presence of PSMA antigen [7]: 0.0806
30 | VVPRCTPPWMCLVS [Phage-2629] |  | 0.976 | 0.0785 | 
31 | DVKWCIPSWMCQDV (cysteine pairing not given here; also: displayed on bacteriophage as fusion to pIII, fusion and linker not given here, Tested as clonal phage supernatant; also called Peptide-180 library clone) [Phage-2682] | 0.859 |  |  | 
32 | DMNWCSPPWMCFGF (cysteine pairing not given here; also: displayed on bacteriophage as fusion to pIII, fusion and linker not given here, Tested as clonal phage supernatant; also called Peptide-180 library clone) [Phage-2680] | 0.873 |  |  | 
33 | VPKWCTPDWMCYGM [Phage-2621] |  | 0.996 | 0.0681 | 
